Laboratory results from patent US10500249B2, “Compositions and methods for preventing or treating diseases, conditions, or processes characterized by aberrant fibroblast proliferation and extracellular matrix deposition” (MOERAE MATRIX, INC., priority 2014, dated 2019).

Legend:
Test in all cases: Kinase Profiling Assay
Type in all cases: biochemical
Conditions in all cases: 100 μM
Ros (h) = Ros (h) (Homo sapiens, UniProt P08922)
Method in brief: (§1)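 Specificity of MK2 inhibitory peptides is assessed against a panel of 266 human kinases. Kinase transfers a radiolabeled phosphate from ATP onto a positively charged substrate, which is trapped on a negatively charged filter and quantified by scintillation counting against full-activity control; duplicate determinations.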

SRPK1 (h) = SRPK1 (h) (Homo sapiens, UniProt Q96SB4)
Sequence of SRPK1 (h) (Q96SB4 whole entry): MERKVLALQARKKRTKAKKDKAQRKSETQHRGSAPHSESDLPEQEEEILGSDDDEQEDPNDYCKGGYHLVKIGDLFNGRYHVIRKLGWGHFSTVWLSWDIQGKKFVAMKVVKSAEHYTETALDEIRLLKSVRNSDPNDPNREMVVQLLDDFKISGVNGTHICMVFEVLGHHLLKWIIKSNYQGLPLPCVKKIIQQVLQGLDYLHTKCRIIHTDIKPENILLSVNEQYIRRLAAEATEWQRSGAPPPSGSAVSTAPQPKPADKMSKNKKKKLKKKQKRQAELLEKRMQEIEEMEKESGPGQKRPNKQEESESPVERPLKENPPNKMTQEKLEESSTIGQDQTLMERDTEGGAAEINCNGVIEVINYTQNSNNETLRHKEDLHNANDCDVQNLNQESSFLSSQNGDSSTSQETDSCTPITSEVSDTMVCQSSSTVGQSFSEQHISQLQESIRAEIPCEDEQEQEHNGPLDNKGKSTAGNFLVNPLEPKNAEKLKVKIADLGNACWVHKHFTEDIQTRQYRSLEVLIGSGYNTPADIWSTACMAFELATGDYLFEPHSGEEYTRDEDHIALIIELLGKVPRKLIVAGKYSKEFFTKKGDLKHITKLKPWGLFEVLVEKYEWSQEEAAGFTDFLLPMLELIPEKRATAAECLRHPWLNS
Method in brief: as §1

EphA1 (h) = biological target: T1, EphA1 (h) (Homo sapiens, UniProt P21709)
T1 construct: purchased Millipore
T1 sequence (P21709 26-976): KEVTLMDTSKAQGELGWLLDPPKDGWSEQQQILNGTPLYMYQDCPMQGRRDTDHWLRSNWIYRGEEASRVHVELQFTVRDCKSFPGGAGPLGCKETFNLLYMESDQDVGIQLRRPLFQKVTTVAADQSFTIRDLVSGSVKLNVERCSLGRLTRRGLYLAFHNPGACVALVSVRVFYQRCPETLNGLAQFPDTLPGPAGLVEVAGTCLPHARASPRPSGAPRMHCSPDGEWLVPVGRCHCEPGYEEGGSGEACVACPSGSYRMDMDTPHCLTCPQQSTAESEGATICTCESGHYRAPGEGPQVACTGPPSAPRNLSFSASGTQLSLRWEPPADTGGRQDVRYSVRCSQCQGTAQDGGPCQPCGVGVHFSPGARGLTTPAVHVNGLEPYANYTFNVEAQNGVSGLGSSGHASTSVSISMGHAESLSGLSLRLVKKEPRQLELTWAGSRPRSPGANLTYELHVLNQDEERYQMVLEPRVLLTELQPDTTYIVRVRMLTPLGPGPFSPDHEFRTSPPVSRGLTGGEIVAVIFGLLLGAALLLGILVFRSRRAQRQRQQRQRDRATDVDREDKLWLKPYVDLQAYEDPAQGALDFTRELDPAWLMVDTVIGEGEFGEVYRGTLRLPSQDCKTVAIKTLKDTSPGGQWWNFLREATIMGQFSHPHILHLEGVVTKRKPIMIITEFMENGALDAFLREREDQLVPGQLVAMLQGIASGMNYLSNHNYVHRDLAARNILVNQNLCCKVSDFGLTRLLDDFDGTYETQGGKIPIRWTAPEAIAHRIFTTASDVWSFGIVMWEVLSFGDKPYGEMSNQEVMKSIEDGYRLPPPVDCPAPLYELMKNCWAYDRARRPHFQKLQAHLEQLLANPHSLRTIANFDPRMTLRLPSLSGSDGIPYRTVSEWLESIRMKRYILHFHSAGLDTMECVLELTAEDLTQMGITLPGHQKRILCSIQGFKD
Method in brief: as §1

PKCα (h) = biological target: T2, PKCα (h) (Homo sapiens, UniProt P17252)
T2 construct: purchased Millipore
Method in brief: as §1

NLK (h) = biological target: T3, NLK (h) (Homo sapiens, UniProt Q9UBE8)
T3 construct: purchased Millipore
T3 sequence (Q9UBE8 1-527): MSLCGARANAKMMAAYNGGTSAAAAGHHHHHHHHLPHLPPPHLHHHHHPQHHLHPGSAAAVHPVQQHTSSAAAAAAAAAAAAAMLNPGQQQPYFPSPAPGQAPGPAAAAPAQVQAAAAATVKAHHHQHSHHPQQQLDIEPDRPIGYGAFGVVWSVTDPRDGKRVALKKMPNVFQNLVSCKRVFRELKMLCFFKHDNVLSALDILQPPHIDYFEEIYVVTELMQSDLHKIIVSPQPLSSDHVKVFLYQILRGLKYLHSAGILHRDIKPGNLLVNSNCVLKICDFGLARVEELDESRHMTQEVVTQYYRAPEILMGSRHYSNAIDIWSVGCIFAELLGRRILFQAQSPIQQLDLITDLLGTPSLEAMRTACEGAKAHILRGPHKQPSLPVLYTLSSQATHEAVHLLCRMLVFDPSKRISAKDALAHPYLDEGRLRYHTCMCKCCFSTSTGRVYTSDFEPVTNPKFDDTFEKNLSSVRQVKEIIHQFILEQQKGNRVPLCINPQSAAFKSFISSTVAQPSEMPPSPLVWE
Method in brief: as §1

CaMKIV (h) = biological target: T4, CaMKIV (h) (Homo sapiens, UniProt Q16566)
T4 construct: purchased Millipore
T4 sequence (Q16566 1-473): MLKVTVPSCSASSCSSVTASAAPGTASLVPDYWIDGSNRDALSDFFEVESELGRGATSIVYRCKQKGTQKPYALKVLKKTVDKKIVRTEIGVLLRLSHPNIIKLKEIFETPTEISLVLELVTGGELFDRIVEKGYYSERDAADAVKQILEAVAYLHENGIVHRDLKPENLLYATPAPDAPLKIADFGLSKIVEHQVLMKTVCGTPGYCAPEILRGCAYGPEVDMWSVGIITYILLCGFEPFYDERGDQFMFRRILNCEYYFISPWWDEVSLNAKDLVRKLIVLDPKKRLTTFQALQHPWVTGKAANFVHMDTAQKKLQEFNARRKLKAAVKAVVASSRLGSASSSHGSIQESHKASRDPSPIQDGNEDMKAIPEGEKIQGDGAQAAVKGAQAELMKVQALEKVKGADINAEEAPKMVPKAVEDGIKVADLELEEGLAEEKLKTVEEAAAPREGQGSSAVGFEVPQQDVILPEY
Method in brief: as §1

PRK2 (h) = PRK2 (h) (Homo sapiens, UniProt Q16513)
Sequence of PRK2 (h) (Q16513 whole entry): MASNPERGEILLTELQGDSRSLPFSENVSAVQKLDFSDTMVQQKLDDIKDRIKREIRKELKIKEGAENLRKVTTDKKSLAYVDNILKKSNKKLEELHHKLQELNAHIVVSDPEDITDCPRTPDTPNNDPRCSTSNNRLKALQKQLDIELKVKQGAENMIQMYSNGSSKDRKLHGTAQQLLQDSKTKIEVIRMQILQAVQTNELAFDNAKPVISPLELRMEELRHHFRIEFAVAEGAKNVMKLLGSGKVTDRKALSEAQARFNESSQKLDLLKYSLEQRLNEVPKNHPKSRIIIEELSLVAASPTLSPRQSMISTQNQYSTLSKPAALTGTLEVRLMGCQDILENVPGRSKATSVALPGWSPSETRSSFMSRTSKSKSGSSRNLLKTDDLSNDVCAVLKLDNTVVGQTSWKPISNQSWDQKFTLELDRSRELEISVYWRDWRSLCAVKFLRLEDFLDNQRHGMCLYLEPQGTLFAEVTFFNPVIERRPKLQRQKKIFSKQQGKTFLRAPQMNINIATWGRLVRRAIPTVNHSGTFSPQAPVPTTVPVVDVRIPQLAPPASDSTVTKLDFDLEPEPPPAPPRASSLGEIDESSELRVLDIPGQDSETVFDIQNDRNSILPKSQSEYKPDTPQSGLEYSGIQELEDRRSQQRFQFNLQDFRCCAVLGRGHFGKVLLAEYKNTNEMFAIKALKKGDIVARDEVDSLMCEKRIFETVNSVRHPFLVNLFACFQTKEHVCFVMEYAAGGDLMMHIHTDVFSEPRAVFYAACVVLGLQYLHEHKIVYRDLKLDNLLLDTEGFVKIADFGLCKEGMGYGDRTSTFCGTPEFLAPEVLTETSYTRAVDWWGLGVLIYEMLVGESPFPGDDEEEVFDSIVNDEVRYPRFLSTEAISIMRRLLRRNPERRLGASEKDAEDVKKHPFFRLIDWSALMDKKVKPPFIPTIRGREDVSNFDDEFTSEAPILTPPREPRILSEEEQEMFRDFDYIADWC
Method in brief: as §1

cKit(V654A) (h) = biological target: T5, cKit(V654A) (h) (Homo sapiens, UniProt P10721, V654A)
T5 construct: purchased Millipore
Method in brief: as §1

Pyk2 (h) = Pyk2 (h) (Homo sapiens, UniProt Q14289)
Method in brief: as §1

cKit(D816H) (h) = biological target: T6, cKit(D816H) (h) (Homo sapiens, UniProt P10721, D816H)
T6 construct: purchased Millipore
Method in brief: as §1

PKBα (h) = biological target: T7, PKBα (h) (Homo sapiens, UniProt P31749)
T7 construct: purchased Millipore
T7 sequence (P31749 whole entry): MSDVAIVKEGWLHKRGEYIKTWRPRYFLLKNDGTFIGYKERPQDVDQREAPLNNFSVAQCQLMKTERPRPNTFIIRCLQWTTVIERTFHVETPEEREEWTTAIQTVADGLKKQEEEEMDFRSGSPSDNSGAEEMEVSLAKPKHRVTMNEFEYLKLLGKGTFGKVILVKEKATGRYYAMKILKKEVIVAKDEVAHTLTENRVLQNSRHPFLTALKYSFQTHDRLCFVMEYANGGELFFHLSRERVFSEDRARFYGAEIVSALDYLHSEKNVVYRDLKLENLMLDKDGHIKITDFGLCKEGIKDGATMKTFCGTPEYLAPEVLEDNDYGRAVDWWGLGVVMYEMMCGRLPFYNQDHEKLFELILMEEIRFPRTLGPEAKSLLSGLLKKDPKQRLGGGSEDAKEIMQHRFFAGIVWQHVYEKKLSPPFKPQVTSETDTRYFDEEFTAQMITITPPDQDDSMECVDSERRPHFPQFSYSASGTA
Method in brief: as §1

Sequence of Ros (h) (P08922 28-2347): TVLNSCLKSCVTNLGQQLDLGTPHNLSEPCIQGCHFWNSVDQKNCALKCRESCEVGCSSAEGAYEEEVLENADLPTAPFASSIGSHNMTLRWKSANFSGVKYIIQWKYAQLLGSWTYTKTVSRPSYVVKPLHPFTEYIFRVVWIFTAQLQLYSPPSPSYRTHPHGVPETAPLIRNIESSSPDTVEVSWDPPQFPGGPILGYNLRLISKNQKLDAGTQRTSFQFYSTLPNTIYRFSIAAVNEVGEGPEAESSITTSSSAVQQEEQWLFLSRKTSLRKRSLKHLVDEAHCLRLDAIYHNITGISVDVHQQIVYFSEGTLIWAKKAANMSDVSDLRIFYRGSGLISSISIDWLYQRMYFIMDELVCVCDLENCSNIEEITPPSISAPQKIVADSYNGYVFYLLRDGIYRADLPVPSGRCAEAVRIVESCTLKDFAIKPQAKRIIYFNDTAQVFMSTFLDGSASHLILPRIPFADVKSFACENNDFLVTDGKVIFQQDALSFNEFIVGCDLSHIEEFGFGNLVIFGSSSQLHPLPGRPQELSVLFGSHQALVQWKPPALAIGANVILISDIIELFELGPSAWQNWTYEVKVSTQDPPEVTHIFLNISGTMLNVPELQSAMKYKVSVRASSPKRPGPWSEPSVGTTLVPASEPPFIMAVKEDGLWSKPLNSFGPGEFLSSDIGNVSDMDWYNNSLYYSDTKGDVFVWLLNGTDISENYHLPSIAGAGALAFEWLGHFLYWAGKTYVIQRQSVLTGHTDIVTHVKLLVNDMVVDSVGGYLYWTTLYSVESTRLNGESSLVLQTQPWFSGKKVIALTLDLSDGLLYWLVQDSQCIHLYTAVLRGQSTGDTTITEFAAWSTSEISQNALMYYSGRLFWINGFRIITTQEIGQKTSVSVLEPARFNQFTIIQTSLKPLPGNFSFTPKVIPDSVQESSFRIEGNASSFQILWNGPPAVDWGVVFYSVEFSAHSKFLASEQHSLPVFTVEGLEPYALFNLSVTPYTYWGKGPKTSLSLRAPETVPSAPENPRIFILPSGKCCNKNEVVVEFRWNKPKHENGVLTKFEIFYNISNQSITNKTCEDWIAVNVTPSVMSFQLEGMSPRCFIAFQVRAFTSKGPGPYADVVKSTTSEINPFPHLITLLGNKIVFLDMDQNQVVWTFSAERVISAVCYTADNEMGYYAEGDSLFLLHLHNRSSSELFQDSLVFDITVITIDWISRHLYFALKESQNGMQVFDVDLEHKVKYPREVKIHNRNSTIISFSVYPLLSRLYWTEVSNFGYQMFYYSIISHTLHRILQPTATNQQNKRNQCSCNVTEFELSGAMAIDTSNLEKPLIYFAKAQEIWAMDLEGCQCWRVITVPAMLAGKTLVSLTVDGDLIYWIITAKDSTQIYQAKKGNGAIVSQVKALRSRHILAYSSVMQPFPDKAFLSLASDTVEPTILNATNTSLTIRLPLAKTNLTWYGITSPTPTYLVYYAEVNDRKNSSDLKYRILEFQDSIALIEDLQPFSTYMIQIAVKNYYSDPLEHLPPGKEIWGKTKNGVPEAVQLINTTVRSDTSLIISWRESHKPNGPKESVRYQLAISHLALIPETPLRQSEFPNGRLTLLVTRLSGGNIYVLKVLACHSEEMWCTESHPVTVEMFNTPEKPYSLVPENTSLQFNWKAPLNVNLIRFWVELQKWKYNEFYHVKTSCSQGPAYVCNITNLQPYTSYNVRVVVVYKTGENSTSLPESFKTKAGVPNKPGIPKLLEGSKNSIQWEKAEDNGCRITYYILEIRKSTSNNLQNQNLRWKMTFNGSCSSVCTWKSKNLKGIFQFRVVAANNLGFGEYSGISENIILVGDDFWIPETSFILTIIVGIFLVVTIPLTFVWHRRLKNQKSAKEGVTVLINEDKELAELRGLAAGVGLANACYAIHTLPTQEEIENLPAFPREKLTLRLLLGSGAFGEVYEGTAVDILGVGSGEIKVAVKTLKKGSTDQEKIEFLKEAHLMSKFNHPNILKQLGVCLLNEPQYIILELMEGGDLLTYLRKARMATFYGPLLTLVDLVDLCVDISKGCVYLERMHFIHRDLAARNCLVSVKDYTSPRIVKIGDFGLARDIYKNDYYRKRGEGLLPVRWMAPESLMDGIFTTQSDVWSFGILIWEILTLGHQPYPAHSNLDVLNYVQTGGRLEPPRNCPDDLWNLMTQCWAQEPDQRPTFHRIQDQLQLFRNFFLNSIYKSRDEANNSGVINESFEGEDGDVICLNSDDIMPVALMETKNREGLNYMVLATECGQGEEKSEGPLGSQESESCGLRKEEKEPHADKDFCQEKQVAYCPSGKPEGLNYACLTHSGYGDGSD

Sequence | % activity (Ros (h)) [%] | % activity (SRPK1 (h)) [%] | % activity (EphA1 (h)) [%] | % activity (PKCα (h)) [%] | % activity (NLK (h)) [%] | % activity (CaMKIV (h)) [%] | % activity (PRK2 (h)) [%] | % activity (cKit(V654A) (h)) [%] | % activity (Pyk2 (h)) [%] | % activity (cKit(D816H) (h)) [%] | % activity (PKBα (h)) [%]
FAKLAARLYRKALARQLGVAA [MMI-0300] | 95 | 90 | 73 | 89 | 87 | 17 | 33 | 134 | 47 | 126 | 57
HRRIKAWLKKIKALARQLGVAA (Mammalian) [MMI-0500] | 150 | 80 | 40 | 3 | 19 | −1 | 7 | 223 | 46 | 194 | 30
KAFAKLAARLYRKALARQLGVAA [MMI-0400] | 99 | 96 | 61 | 86 | 90 | 18 | 27 | 150 | 34 | 143 | 67
YARAAARQARAKALNRQLGVA (Mammalian) [MMI-0200] | 86 | 93 | – | 100 | – | 71 | 74 | – | 127 | – | 110
